Assay [1] concerns the target IL-15 receptors on CD8+ T cells and NK cells of cynomolgus monkey whole blood (cynomolgus monkey).
For assay [2] the target is unchanged. This is another data set of the same source.

In assay [1], IL-15_L26[AzK_PEG30] (ligand) showed an EC50 of STAT5 signaling (pSTAT5), CD8+ T cells, cynomolgus monkey whole blood of 1040 ng/ml and an EC50 of STAT5 signaling (pSTAT5), NK cells, cynomolgus monkey whole blood of 219 ng/ml. In assay [2], this substance had a fold change of EC50 for pSTAT5 induction against native IL-15, CD8+ T cells, cynomolgus monkey whole blood of 164 fold and a fold change of EC50 for pSTAT5 induction against native IL-15, NK cells, cynomolgus monkey whole blood of 115 fold.
Take “native IL-15 (from UniProt P40933) (ligand)”: in assay [1], the EC50 of STAT5 signaling (pSTAT5), CD8+ T cells, cynomolgus monkey whole blood was 6.3 ng/ml and the EC50 of STAT5 signaling (pSTAT5), NK cells, cynomolgus monkey whole blood came out at 1.9 ng/ml.
As to IL-15_E54[AzK_PEG30] (ligand), in assay [1], the EC50 of STAT5 signaling (pSTAT5), CD8+ T cells, cynomolgus monkey whole blood amounted to 9.2 ng/ml and the EC50 of STAT5 signaling (pSTAT5), NK cells, cynomolgus monkey whole blood was found to be 1.8 ng/ml.
In assay [1], IL-15_N78[AzK_PEG30] (ligand) returned an EC50 of STAT5 signaling (pSTAT5), CD8+ T cells, cynomolgus monkey whole blood of 15.7 ng/ml and an EC50 of STAT5 signaling (pSTAT5), NK cells, cynomolgus monkey whole blood of 3.9 ng/ml.

Source of the values: patent publication US12344648B2.
